# T1: SNAP-tagged FUS (Fused in sarcoma), P35637
# T1 chain: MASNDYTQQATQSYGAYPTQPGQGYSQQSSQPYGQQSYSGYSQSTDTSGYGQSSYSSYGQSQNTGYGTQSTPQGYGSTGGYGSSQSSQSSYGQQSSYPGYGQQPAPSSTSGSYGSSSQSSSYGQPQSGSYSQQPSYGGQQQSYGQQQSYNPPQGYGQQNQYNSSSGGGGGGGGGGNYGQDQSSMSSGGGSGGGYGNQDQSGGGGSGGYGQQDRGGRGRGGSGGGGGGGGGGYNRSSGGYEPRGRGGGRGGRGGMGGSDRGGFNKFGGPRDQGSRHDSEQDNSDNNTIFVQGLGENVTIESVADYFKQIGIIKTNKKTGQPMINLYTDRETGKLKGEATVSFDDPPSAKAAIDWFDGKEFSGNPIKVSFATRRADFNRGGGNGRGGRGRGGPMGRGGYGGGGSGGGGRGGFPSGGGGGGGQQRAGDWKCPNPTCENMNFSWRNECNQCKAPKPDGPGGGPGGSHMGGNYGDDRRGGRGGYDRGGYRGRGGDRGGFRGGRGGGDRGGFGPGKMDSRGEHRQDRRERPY
# T2: untagged FUS (Fused in sarcoma), P35637
# T2 chain: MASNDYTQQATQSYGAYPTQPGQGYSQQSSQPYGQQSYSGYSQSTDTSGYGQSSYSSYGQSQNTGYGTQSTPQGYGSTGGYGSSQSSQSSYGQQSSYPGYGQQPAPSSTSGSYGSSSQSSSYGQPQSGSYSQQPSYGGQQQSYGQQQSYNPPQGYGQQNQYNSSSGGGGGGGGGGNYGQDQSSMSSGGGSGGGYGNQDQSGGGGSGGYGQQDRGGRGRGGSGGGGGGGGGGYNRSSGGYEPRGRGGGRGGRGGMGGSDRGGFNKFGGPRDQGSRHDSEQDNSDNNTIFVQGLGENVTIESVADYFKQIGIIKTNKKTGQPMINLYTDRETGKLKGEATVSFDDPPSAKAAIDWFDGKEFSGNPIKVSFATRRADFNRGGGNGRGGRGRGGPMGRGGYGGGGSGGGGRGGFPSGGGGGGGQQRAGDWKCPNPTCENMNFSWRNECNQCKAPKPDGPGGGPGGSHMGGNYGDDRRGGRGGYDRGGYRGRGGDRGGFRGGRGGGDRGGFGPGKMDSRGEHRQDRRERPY
# Assays:
# Settings in all cases: remark: other sources report otherwise
# [1] = target: T1, SNAP-tagged FUS (Fused in sarcoma), …; test: nanoparticle tracking analysis (NTA); mesoscale clusters in sub-saturated solutions; 100 mM KGlu and 100 mM KCl, 25 °C, recorded 6 minutes after sample preparation
# [2] = target: T1, SNAP-tagged FUS (Fused in sarcoma), …; test: dynamic light scattering (DLS); derived count rate and size distributions in sub-saturated solutions; 20 mM Tris.Glu pH 7.4, 100 mM KGlu (with residual KCl from the stock), 25 °C; self-association into clusters
# [3] = target: T2, untagged FUS (Fused in sarcoma), P35637; test: nanoparticle tracking analysis (NTA); mesoscale clusters in sub-saturated solutions; 100 mM KGlu and 100 mM KCl, 25 °C, recorded 6 minutes after sample preparation
abundance of mesoscale clusters in 100 mM KGlu relative to 100 mM KCl [1] [fold],derived count rate in 100 mM KGlu relative to 100 mM KCl [2] [fold],abundance of mesoscale clusters in 100 mM KGlu relative to 100 mM KCl [3] [fold],Binder
4,< 3,–,"SNAP-tagged FUS (Fused in sarcoma), P35637 1-526 (natural protein, here or on the partner: Alexa 488 (AF488) or Alexa 647 (AF647) label in the smFRET and FCS experiments; unlabelled elsewhere; Alexa 488 (AF488) or Alexa 647 (AF647) label in the smFRET and FCS experiments; unlabelled elsewhere) MASNDYTQQATQSYGAYPTQPGQGYSQQSSQPYGQQSYSGYSQSTDTSGYGQSSYSSYGQSQNTGYGTQSTPQGYGSTGGYGSSQSSQSSYGQQSSYPGYGQQPAPSSTSGSYGSSSQSSSYGQPQSGSYSQQPSYGGQQQSYGQQQSYNPPQGYGQQNQYNSSSGGGGGGGGGGNYGQDQSSMSSGGGSGGGYGNQDQSGGGGSGGYGQQDRGGRGRGGSGGGGGGGGGGYNRSSGGYEPRGRGGGRGGRGGMGGSDRGGFNKFGGPRDQGSRHDSEQDNSDNNTIFVQGLGENVTIESVADYFKQIGIIKTNKKTGQPMINLYTDRETGKLKGEATVSFDDPPSAKAAIDWFDGKEFSGNPIKVSFATRRADFNRGGGNGRGGRGRGGPMGRGGYGGGGSGGGGRGGFPSGGGGGGGQQRAGDWKCPNPTCENMNFSWRNECNQCKAPKPDGPGGGPGGSHMGGNYGDDRRGGRGGYDRGGYRGRGGDRGGFRGGRGGGDRGGFGPGKMDSRGEHRQDRRERPY"
–,–,4,"untagged FUS (Fused in sarcoma), P35637 1-526 (natural protein) MASNDYTQQATQSYGAYPTQPGQGYSQQSSQPYGQQSYSGYSQSTDTSGYGQSSYSSYGQSQNTGYGTQSTPQGYGSTGGYGSSQSSQSSYGQQSSYPGYGQQPAPSSTSGSYGSSSQSSSYGQPQSGSYSQQPSYGGQQQSYGQQQSYNPPQGYGQQNQYNSSSGGGGGGGGGGNYGQDQSSMSSGGGSGGGYGNQDQSGGGGSGGYGQQDRGGRGRGGSGGGGGGGGGGYNRSSGGYEPRGRGGGRGGRGGMGGSDRGGFNKFGGPRDQGSRHDSEQDNSDNNTIFVQGLGENVTIESVADYFKQIGIIKTNKKTGQPMINLYTDRETGKLKGEATVSFDDPPSAKAAIDWFDGKEFSGNPIKVSFATRRADFNRGGGNGRGGRGRGGPMGRGGYGGGGSGGGGRGGFPSGGGGGGGQQRAGDWKCPNPTCENMNFSWRNECNQCKAPKPDGPGGGPGGSHMGGNYGDDRRGGRGGYDRGGYRGRGGDRGGFRGGRGGGDRGGFGPGKMDSRGEHRQDRRERPY"

# — article PMC10543311
